“And” between values parts separate entries of the source, which are not always exact repeats. Equal entries are not always repeated.

The target in the assay is recombinant human galectin-3 protein (human) (UniProt P17931). The experiment in a line: AlphaScreen or HTRF; indirect AlphaLISA saturation binding; His-tagged tau K18 (0-100 nM, analyte) on anti-His donor beads, untagged GAL-3 (1, 3 and 10 nM) captured by anti-GAL-3 antibody and anti-rabbit IgG acceptor beads; proteins incubated 60 min at 4°C, beads 60 min at RT in the dark; assay buffer in DPBS; Kd = concentration at 50% saturation. (In general: In Alpha technology, singlet oxygen from a donor bead excites a nearby acceptor bead.)
UniProt P17931, sequence (P17931 whole entry): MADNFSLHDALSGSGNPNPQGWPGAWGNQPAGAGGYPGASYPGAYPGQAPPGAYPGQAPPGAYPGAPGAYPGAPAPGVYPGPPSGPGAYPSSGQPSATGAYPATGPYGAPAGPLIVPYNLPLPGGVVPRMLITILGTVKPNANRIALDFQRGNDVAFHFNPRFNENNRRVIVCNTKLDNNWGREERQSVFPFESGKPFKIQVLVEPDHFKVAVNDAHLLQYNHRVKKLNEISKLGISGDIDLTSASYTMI

Regarding “His-tagged human tau K18 fragment (domain or fragment)”, the Kd (commonly the concentration at which binding is half-saturated) is 8.31 nM and 8.73 nM and 9.13 nM.
